Measured values as given in patent US8877192B2, “Rage fusion proteins and methods of use” (TransTech Pharma, LLC, priority 2004, dated 2014).

Experiments:
amyloid-beta (Abeta) = molecular target: T1, amyloid-beta (Abeta) (Homo sapiens, UniProt P05067); assay: In vitro ligand binding (ELISA) to immobilized amyloid-beta; details: increasing dilutions of fusion protein; FIG. 7
T1 construct: Amyloid Beta (1-40) from Biosource; purchased Biosource
Description: (§1) For example, the RAGE fusion protein may be used in a binding assay to identify potential RAGE ligands. In one example embodiment of such a binding assay, a known RAGE ligand may coated onto a solid substrate (e.g., Maxisorb plates) at a concentration of about 5 micrograms per well, where each well contains a total volume of about 100 microliters (μL). The plates may be incubated at 4° C. overnight to allow the ligand to absorb. Alternatively, shorter incubation periods at higher temperature (e.g., room temperature) may be used. […] The fusion protein bound to the immobilized ligand may be detected in a variety of ways. […] The bound complex may be detected by adding the alkaline phosphatase substrate, para-nitrophenylphosphate (PNPP), and measuring conversion of PNPP to para-nitrophenol (PNP) as an increase in absorbance at 405 nm. […] Binding was detected by the addition of an immunodetection complex containing a monoclonal mouse anti-human IgG1 diluted 1:11,000 to a final assay concentration (FAC) of 21 ng/100 μL, a biotinylated goat anti-mouse IgG diluted 1:500, to a FAC of […], and an avidin-linked alkaline phosphatase. […] Binding of the complex to the immobilized fusion protein was quantified by measuring conversion of PNPP to para-nitrophenol (PNP) which was measured spectrophotometrically at 405 nm. […]

S100b (S100) = molecular target: T2, S100b (S100) (Homo sapiens, UniProt P04271); assay: In vitro ligand binding (ELISA) to immobilized S100b; details: increasing dilutions of fusion protein; FIG. 7
T2 sequence (P04271 1-92): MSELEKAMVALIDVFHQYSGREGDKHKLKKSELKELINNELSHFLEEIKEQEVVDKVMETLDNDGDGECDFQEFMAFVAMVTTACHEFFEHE
Description: as §1

T1 sequence (P05067 672-711 limits assumed): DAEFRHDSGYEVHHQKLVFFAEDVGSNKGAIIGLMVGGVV

B1: TTP-4000: four domain RAGE fusion protein (SEQ ID NO: 32): human RAGE amino acids 1-251 linked to CH2 and CH3 domains of human IgG (protein)
chain: MAAGTAVGAWALVLSLWGAVVGAQNITARIGEPLVLKCKGAPKKPPQRLEWKLNTGRTEAWKVLSPQGGGPWDSVARVLPNGSLFLPAVGIQDEGIFRCQAMNRNGKETKSNYRVRVYQIPGKPEIVDSASELTAGVPNKVGTCVSEGSYPAGTLSWHLDGKPLVPNEKGVSVKEQTRRHPETGLFTLQSELMVTPARGGDPRPTFSCSFSPGLPRHRALRTAPIQPRVWEPVPLEEVQLVVEPEGGAVAPPSVFLFPPKPKDTLMISRTPEVTCVVVDVSHEDPEVKFNWYVDGVEVHNAKTKPREEQYNSTYRVVSVLTVLHQDWLNGKEYKCKVSNKALPAPIEKTISKAKGQPREPQVYTLPPSRDELTKNQVSLTCLVKGFYPSDIAVEWESNGQPENNYKTTPPVLDSDGSFFLYSKLTVDKSRWQQGNVFSCSVMHEALHNHYTQKSLSLSPGK
Question: Which results are given for B1?
Answer: binding to immobilized amyloid-beta (absorbance at 405 nm) (amyloid-beta (Abeta)): specifically interact; binding to immobilized S100b (absorbance at 405 nm) (S100b (S100)): specifically interact
